Patent US20240117402A1, “METHODS FOR (POLY) PEPTIDE TANDEM LIGATION AND CYCLIZATION” (Nanyang Technological University, priority 2021, published 2024)
Where no end group is shown, it is not given here.

What was measured:
butelase-1 [1] = assay: Butelase-1-catalyzed peptide cyclization (substrate screen, pH scan, kinetics); format: biochemical
Description: (§1) FIG. 9. Screening of P1′-Asp peptides for cyclization by A) VyPAL2, B) butelase-1 and C) OaAEP1b. Quantitative summary of reaction yields of the reaction mixtures. For each reaction, 25 nM of the enzyme and 5 μM of the peptide substrate (21a-21i) were mixed and reacted at pH 4.5, 25° C. for 60 min. The positive control peptide 21j was performed at the same conditions except at pH 7.4. Average yields and SDs were calculated from experiments performed in triplicate. The amino acid sequence of the peptides used are set forth in SEQ ID Nos. 15-24.
(§2) FIG. 10. Ligation activity of three different ligases under different pH and substrate. Cyclization activity of A) VyPAL2, B) Butelase-1 or C) OaAEP1b towards substrate 21e-DSL and 21j-NGL; Fold difference was calculated using the cyclization rate of 21j-NGL divided by that of 21e-DSL. All the results were the average reaction rate at different pH in triplicate experiments based on MALDI-TOF analysis. Light grey text in the “Fold difference” axis marks to the maximum fold difference.
(§3) FIG. 11. Enzymatic activity of three different ligases on the cyclization reaction of P1-Asp peptide 21e-DSL or 21a-DGL and P1-Asn-peptide 21j-NGL. A) Scheme of PAL-mediated P1-Asp peptide cyclization; B) Enzymatic kinetics of VyPAL2 in cyclizing 21e-DSL at pH 4.5; C) Enzymatic kinetics of VyPAL2 in cyclizing 21e-DSL at pH 7.0; D) Enzymatic kinetics of OaAEP1b in cyclizing 21a-DGL at pH 5.5; E) Enzymatic kinetics of Butelase-1 in cyclizing 21e-DSL at pH 4.5. F) Scheme of PAL-mediated cyclization of peptide 21j-NGL; G). Enzymatic kinetics of butelase-1 in cyclizing […] at pH 4.5; H)
(§4) Enzymatic kinetics of VyPAL2 in cyclizing 21j-NSL at pH 4.5; I) Enzymatic kinetics of butelase-1 in cyclizing 21j-NSL at pH 7.4; J) Enzymatic kinetics of OaAEP1b in cyclizing 21j-NSL at pH 7.0. Sequences of peptides used are set forth in SEQ ID Nos. 15, 19, 24.
(§5) PALs recognize a tripeptide motif Asx-P1′-P2′ in the acyl donor substrate for their catalyzed ligation reactions. Because the formation of the acyl-enzyme thioester intermediate is the rate-limiting step, the leaving group P1′-P2′ also plays an important role in determining the catalytic kinetics of a particular 40 PAL-mediated reaction. Previous studies have determined Leu as a preferred P2′ residue. To identify the most favorable P1′ residues for PAL-catalyzed Asp-ligation, a panel of peptides (peptide 21a-21j) with C-terminal DXL and N-terminal GI motifs was synthesized and cyclization reactions performed. Peptide 21j with a C-terminal NGL, a P1-Asn peptide favored by VyPAL2, was used for comparison with the P1-Asp peptides 21a-21i. […] Meanwhile, the P1′ substrate specificities of the two other ligases - Butelase-1 and OaAEP1b - were also evaluated by using the same substrates 21a-21j.
A pH scan experiment with the other two ligases: butelase-1 and OaAEP1 b, for their cyclase activity on 21e and 21j was also conducted. […] In fact, the difference in reaction efficiency between 21j and 21e was about 950 times at pH 7.4 (FIG. 10). […] This makes VyPAL2 a more efficient ligase than butelase-1 for Asp-mediated protein modification.

VyPAL2 [2] = assay: VyPAL2-mediated intermolecular peptide ligation kinetics (HPLC); format: biochemical, Viola yedoensis
Description: (§6) FIG. 3. Kinetic studies on VyPAL2- and butelase 1-catalyzed intermolecular ligations. A) Peptide 1 (SEQ ID NO:7) containing the C-terminal NHV sequence was used at varying concentrations (50 — 800 μM) to react with peptide 2 (SEQ ID NO:8) at constant concentration (1 mM); B) Peptide 4 (SEQ ID NO:9) at a constant concentration (1.5 mM) was reacted with the GF-peptide 5 (SEQ ID NO:10) at varying concentrations (50-800 μM). C) Peptide 2 at a constant concentration (1.5 mM) was reacted with the -NGF peptide 7 (SEQ ID NO:11) at varying concentrations (50-800 μM). The ligation product 3 or 6 was confirmed by ESI-MS. The reaction rates were calculated from the consumption of the limiting substrate 1, 5 or 7. Initial rate (V0) at different concentrations of the limiting substrate were used for Michaelis-Menten curve plotting. For each kinetic calculation, a lineweaver-Burk plot was also used to confirm the analysis.
(§7) PAL enzymes have been used extensively for protein single-site labeling and macrocyclization. However, using two PALs of different substrate specificity for bio-orthogonal and dual ligation remains unexplored. […] To determine the differences quantitatively, firstly the kinetics of VyPAL2 and butelase-1 toward peptide 1 or 7 which has a C-terminal NHV or NGF tripeptide motif respectively were studied (Table 1). The nucleophile substrate, used at a constant concentration, was peptide 2 which contains an N-terminal GI dipeptide motif. Reverse-phase analytical HPLC was used to monitor and quantify the ligation reaction. […] Similarly, kinetics of the two ligases towards a GF-starting nucleophile substrate, peptide 5, were also examined.
(§8) In this case, the acyl substrate, now kept at a constant concentration for the kinetic study, was peptide 4 which contains NGL at the C-terminus, a favorable motif for both VyPAL2 and butelase-1. It was shown that VyPAL2 has 5-fold catalytic efficiency than butelase-1 towards the GF-peptide substrate 5 (Table 1 and FIG. 3). In summary, the kinetic studies confirm the differential activities of butelase-1 and VyPAL2 toward certain substrate sequences, which provide strong support for a two-PAL, bio-orthogonal tandem ligation scheme for protein dual labeling.

butelase-1 [3] = assay: Butelase-1-mediated intermolecular peptide ligation kinetics (HPLC); format: biochemical; conditions: Butelase-1; limiting substrate 50-800 μM, partner peptide constant
Description: as §6, §7, §8

VyPAL2 [4] = assay: VyPAL2-catalyzed peptide cyclization (substrate screen, pH scan, kinetics); format: biochemical, Viola yedoensis
Description: as §1, §2, §3, §4, §5
scanning experiment using the two peptides 21e and 21j was performed. Cyclization reactions were conducted by mixing 5 μM of peptide 21e or 50 μM of 21j with 25 nM of VyPAL2 over a pH range of 4.0 to 7.4. Results confirmed that the optimum pH for the cyclization of the P1-Asn peptide 21j was 6.5-7.4. But for the P1-Asp peptide 21e (which has the C-terminal DSL tripeptide), the optimum pH was 4.0-4.5.
It is worth noting that, at pH 7.4, VyPAL2 processed peptide 21j for cyclization at a rate that is >1000 folds faster than processing peptide 21e (FIG. 10). This enormous difference of reactivity essentially established the orthogonality for ligation at Asn in the presence of aspartyl bonds.

[5] = molecular target: T1, Peptide 1 (SEQ ID NO:7), Ac-KKLAVINHV
T1 chain: KKLAVINHV

[6] = molecular target: T2, Peptide 21e (SEQ ID NO:19), GISTKSIPPISYRDSL
T2 chain: GISTKSIPPISYRDSL

[7] = molecular target: T3, Peptide 21j (SEQ ID NO:24), GISTKSIPPISYRNGL
T3 chain: GISTKSIPPISYRNGL

[8] = molecular target: T4, Peptide 5 (SEQ ID NO:10), GFGGIKA
T4 chain: GFGGIKA

[9] = molecular target: T5, Peptide 7 (SEQ ID NO:11), Ac-KKLAVINGF
T5 chain: KKLAVINGF

[10] = Butelase-1, cyclization, pH 4.5

## GISTKSIPPISYRDKL (GISTKSIPPISYRDKL-NH2) [Peptide 21g]
butelase-1 [1]; 25 nM butelase-1, 5 μM peptide, pH 4.5, 25° C., 60 min
  substrate preference among P1-Asp peptides: slight preference

## Ac-KKLAVINGF (Ac-KKLAVINGF-NH2) [Peptide 7]
VyPAL2 [2]; VyPAL2, limiting substrate 50-800 μM, partner peptide constant
  Km: 155 ± 15 µM
VyPAL2 [2]; VyPAL2, limiting substrate 50-800 μM, partner peptide constant (1 with 2 at 1 mM; 5 with 4 at 1.5 mM; 7 with 2 at 1.5 mM)
  kcat: 1.10 ± 0.03 S^−1
VyPAL2 [2]; intermolecular ligation
  catalytic activity/efficiency of VyPAL2 relative to butelase-1 towards the substrate: about 3 times
butelase-1 [3]
  Km: 175 ± 1 µM
  kcat: 0.46 ± 0.04 S^−1

## GISTKSIPPISYRDSL (GISTKSIPPISYRDSL-NH2) [Peptide 21e]
VyPAL2 [4]; 25 nM VyPAL2, 5 μM peptide, pH 4.5, 25° C., 60 min
  cyclization rate among P1-Asp peptides 21a-21i: fastest cyclization rate
VyPAL2 [4]; 25 nM VyPAL2, pH range 4.0 to 7.4, 5 μM 21e or 50 μM 21j
  optimum pH for cyclization: 4.0-4.5
VyPAL2 [4]; VyPAL2, cyclization, pH 4.5
  Km: 25.6 ± 2.6 µM
  kcat: 0.28 ± 0.023 s⁻¹
VyPAL2 [4]; VyPAL2, cyclization, pH 7.0
  Km: 42.3 ± 2.8 µM
  kcat: 0.021 ± 0.001 s⁻¹
VyPAL2 [4]; VyPAL2, cyclization, pH 7.4
  Vmax: 0.004 µM/min
butelase-1 [1]; [10]
  Km: 16.6 ± 2.3 µM
  kcat: 0.11 ± 0.01 s⁻¹

B1: butelase-1 (asparaginyl ligase, active form, SEQ ID NO:2) (protein)
chain: VEGTRWAVLVAGSKGYVNYRHQADVCHAYQILKKGGLKDENIIVFMYDDIAYNESNPHPGVIINHPYGSDVYKGVPKDYVGEDINPPNFYAVLLANKSALTGTGSGKVLDSGPNDHVFIYYTDHGGAGVLGMPSKPYIAASDLNDVLKKKHASGTYKSIVFYVESCESGSMFDGLLPEDHNIYVMGASDTGESSWVTYCPLQHPSPPPEYDVCVGDLFSVAWLEDCDVHNLQTETFQQQYEVVKNKTIVALIEDGTHVVQYGDVGLSKQTLFVYMGTDPAN
[5]
  Km, intermolecular ligation of peptide 1 (varied) with nucleophile peptide 2: 85 µM
  kcat, intermolecular ligation of peptide 1 (varied) with nucleophile peptide 2: 1.47 S^-1
  kcat/Km, intermolecular ligation of peptide 1 (varied) with nucleophile peptide 2: 17300 M^-1S^-1
[6]
  Km, cyclization at pH 4.5: 16.6 µM
  kcat, cyclization at pH 4.5: 0.11 s⁻¹
  kcat/Km, cyclization at pH 4.5: 7210 ± 489 M^-1s^-1
[7]
  Km, cyclization at pH 4.5: 12.7 µM
  Km, cyclization at pH 7.4: 13.5 µM
  kcat, cyclization at pH 4.5: 0.6 s⁻¹
  kcat, cyclization at pH 7.4: 9.4 s⁻¹
  kcat/Km, cyclization at pH 4.5: 47100 ± 3740 M^-1s^-1
  kcat/Km, cyclization at pH 7.4: 714200 ± 5390 M^-1s^-1
[8]
  Km, intermolecular ligation of GF-peptide 5 (varied) with acyl substrate peptide 4: 365 µM
  kcat, intermolecular ligation of GF-peptide 5 (varied) with acyl substrate peptide 4: 1.55 S^-1
  kcat/Km, intermolecular ligation of GF-peptide 5 (varied) with acyl substrate peptide 4: 4260 M^-1S^-1
[9]
  Km, intermolecular ligation of peptide 7 (varied) with nucleophile peptide 2: 175 µM
  kcat, intermolecular ligation of peptide 7 (varied) with nucleophile peptide 2: 0.46 S^-1
  kcat/Km, intermolecular ligation of peptide 7 (varied) with nucleophile peptide 2: 2650 M^-1S^-1

B2: VyPAL2 (asparaginyl ligase, active form, SEQ ID NO:1) (protein)
chain: DSIGTRWAVLIAGSKGYHNYRHQADVCHMYQILRKGGVKDENIIVFMYDDIAYNESNPFPGIIINKPGGENVYKGVPKDYTGEDINNVNFLAAILGNKSAIIGGSGKVLDTSPNDHIFIYYADHGAPGKIGMPSKPYLYADDLVDTLKQKAATGTYKSMVFYVEACNAGSMFEGLLPEGTNIYAMAASNSTEGSWITYCPGTPDFPPEFDVCLGDLWSITFLEDCDAHNLRTETVHQQFELVKKKIAYASTVSQYGDIPISKDSLSVYM
[5]
  Km, intermolecular ligation of peptide 1 (varied) with nucleophile peptide 2: 182 µM
  kcat, intermolecular ligation of peptide 1 (varied) with nucleophile peptide 2: 0.17 S^-1
  kcat/Km, intermolecular ligation of peptide 1 (varied) with nucleophile peptide 2: 932 M^-1S^-1
[6]
  Km, cyclization at pH 4.5: 25.6 µM
  Km, cyclization at pH 7.0: 42.3 µM
  Vmax, cyclization at pH 7.4: with Vmax of 0.004 and 5.633 µM/min respectively
  kcat, cyclization at pH 4.5: 0.28 s⁻¹
  kcat, cyclization at pH 7.0: 0.021 s⁻¹
  kcat/Km, cyclization at pH 4.5: 10900 ± 195 M^-1s^-1
  kcat/Km, cyclization at pH 7.0: 752 M^-1s^-1
  kcat/Km, cyclization at pH 7.0 (value in running text, differs from Table 2): kcat/Km as ˜847±123 M -1 5 1
[7]
  Km, cyclization at pH 4.5: 28.4 µM
  Km, cyclization at pH 7.4: 25.8 µM
  Vmax, cyclization at pH 7.4: with Vmax of 0.004 and 5.633 µM/min respectively
  kcat, cyclization at pH 4.5: 1.9 s⁻¹
  kcat, cyclization at pH 7.4: 5.5 s⁻¹
  kcat/Km, cyclization at pH 4.5: 67000 ± 3230 M^-1s^-1
  kcat/Km, cyclization at pH 7.4: 214000 ± 3900 M^-1s^-1
[8]
  Km, intermolecular ligation of GF-peptide 5 (varied) with acyl substrate peptide 4: 424 µM
  kcat, intermolecular ligation of GF-peptide 5 (varied) with acyl substrate peptide 4: 8.29 S^-1
  kcat/Km, intermolecular ligation of GF-peptide 5 (varied) with acyl substrate peptide 4: 19600 M^-1S^-1
[9]
  Km, intermolecular ligation of peptide 7 (varied) with nucleophile peptide 2: 155 µM
  kcat, intermolecular ligation of peptide 7 (varied) with nucleophile peptide 2: 1.1 S^-1
  kcat/Km, intermolecular ligation of peptide 7 (varied) with nucleophile peptide 2: 7220 M^-1S^-1
